Results from article PMC8506970.

Biological target: His-mATGL288-Str (expression product of pST44-HIS-SMT3-TEV-mATGL288-STR) (mouse) (UniProt Q8BJ56)
Sequence (Q8BJ56 1-288): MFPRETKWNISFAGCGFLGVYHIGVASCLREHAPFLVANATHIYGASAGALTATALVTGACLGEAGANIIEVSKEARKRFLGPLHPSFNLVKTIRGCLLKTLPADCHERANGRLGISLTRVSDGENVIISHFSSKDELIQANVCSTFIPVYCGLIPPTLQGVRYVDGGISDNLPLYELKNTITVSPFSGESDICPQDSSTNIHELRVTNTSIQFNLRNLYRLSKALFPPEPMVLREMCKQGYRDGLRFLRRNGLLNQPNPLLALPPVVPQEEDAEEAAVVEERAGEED

Sequence of CGI-58 (expression product of pST44-SMT3-TEV-mCGI58-HIS) (Q9DBL9 whole entry): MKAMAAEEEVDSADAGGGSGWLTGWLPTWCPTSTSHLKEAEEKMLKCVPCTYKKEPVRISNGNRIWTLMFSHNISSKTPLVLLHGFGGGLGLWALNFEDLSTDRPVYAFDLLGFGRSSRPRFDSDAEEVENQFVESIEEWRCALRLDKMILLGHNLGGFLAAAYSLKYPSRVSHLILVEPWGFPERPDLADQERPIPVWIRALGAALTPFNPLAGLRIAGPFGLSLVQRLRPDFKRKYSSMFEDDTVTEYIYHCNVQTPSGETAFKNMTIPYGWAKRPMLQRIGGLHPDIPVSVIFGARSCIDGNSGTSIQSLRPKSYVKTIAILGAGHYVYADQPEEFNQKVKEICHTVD

TAG hydrolase activity of His-mATGL288-Str coactivated by CGI-58 after storage at 4 °C, against fresh protein: 50 % loss
TAG hydrolase activity of His-mATGL288-Str coactivated by CGI-58 within 10 days of storage at -80 °C (snap frozen, 10% glycerol), against fresh protein: 50 % loss
TAG hydrolase activity of freshly purified His-mATGL288-Str, CGI-58-stimulated against basal (equimolar mCGI-58): 10 fold
TAG hydrolase activity upon CGI-58 coactivation of His-mATGL288-Str frozen in sucrose buffer at -80 °C, alone or as complex with CGI-58, against fresh protein: 40 % loss
Substance: CGI-58 (expression product of pST44-SMT3-TEV-mCGI58-HIS) (from UniProt Q9DBL9 1-351) (natural protein)
